target: T1, human gastric inhibitory peptide receptor (hGIPR) (Homo sapiens, UniProt P48546); assay: cAMP pharmacological functional assay in presence of 0.1% casein, hGIPR; format: cell-based; details: ratio of hGIPR to hGLP1R cAMP EC50 ratios
T1 construct: expressed in transfected cells; host or cells: HEK293
T1 sequence (P48546 22-466): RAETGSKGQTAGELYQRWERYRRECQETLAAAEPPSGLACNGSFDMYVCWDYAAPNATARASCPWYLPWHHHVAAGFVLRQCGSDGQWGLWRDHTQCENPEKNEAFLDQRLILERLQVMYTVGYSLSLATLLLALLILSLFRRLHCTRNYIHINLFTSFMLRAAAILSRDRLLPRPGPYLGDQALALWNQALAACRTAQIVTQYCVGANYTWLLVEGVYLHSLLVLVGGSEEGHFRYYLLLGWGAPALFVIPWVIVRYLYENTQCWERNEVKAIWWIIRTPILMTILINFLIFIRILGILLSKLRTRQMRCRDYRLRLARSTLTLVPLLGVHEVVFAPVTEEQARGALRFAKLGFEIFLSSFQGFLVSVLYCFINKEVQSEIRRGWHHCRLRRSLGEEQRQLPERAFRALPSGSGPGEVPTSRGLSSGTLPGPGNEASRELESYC
Description: Each receptor over-expressing cell line (20 μl) is treated with the test peptide in DMEM (Gibco Cat #31053) supplemented with 0.1% Casein (Sigma Cat #C4765), 250 μM IBMX, 1× GlutaMAX™ (Gibco Cat #35050), and 20 mM HEPES (HyClone Cat #SH30237.01) in a 20 μl assay volume. […] EC50 is the concentration of compound causing half-maximal simulation in a dose response curve. A relative EC50 value is derived by non-linear regression analysis using the percent maximal response vs. the concentration of peptide added, fitted to a four-parameter logistic equation.
Intracellular cAMP levels are determined by extrapolation using a standard curve. Dose response curves of compounds are plotted as the percentage of stimulation normalized to minimum (buffer only) and maximum (maximum concentration of each control ligand) values and analyzed using a four parameter non-linear regression fit with a variable slope (Genedata Screener 13). EC50 is the concentration of compound causing half-maximal simulation in a dose response curve.
EC50 is the concentration of compound causing half-maximal simulation in a dose response curve.

Point of comparison: “Y-Aib-EGT-αMeF(2F)-TSD-4Pal-SI-αMeL-LD-Orn-K((2-[2-(2-Amino-ethoxy)-ethoxy]-acetyl)2-(γGlu)-CO—(CH2)16—CO2H)AQ-Aib-TFI-(D-Glu)-αMeY-LIEGGPSSGAPPPS-NH2 (YXEGTXTSDXSIXLDXKAQXTFIXXLIEGGPSSGAPPPS; Aib, 4Pal, Orn, αMe residues, lipidated Lys, D-Glu, amide; (2)..(2) Xaa at position 2 is Aib; (6)..(6) Xaa at position 6 is alpha-methyl-Phe(2F); (10)..(10) Xaa at position 10 is 4Pal; (13)..(13) Xaa at position 13 is alpha-methyl-Leu; (16)..(16) Xaa at position 16 is Orn; MOD_RES (17)..(17) Lys at position 17 is chemically modified by conjugation of the epsilon-amino group of the Lys side chain with (2-[2-(2-amino-ethoxy)-ethoxy]-acetyl)2-(gamma-Glu)-CO-) [Peptide 239]”, “[hGIPR/hGLP1R] EC50 Ratio” value 5.34. Against it:
- Y-Aib-Aad-GTFTSDYSILLDKK((2-[2-(2-Amino-ethoxy)-ethoxy]-acetyl)2-(γGlu)-CO—(CH2)18—CO2H)AQ-Aib-AFIEYLIEGGPSSGAPPPS-NH2 (YXXGTFTSDYSILLDKKAQXAFIEYLIEGGPSSGAPPPS; Aib, Aad, lipidated Lys, C-terminal amide; (2)..(2) Xaa at position 2 is Aib; (3)..(3) Xaa at position 3 is Aad; MOD_RES (17)..(17) Lys at position 17 is chemically modified by conjugation of the epsilon-amino group of the Lys side chain with (2-[2-(2-amino-ethoxy)-ethoxy]-acetyl)2-(gamma-Glu)-CO-(CH2)18- CO2H; (20)..(20) Xaa at position 20 is Aib; MOD_RES (39)..(39) Ser at position 39 is amidated) [Peptide 89] — higher, 8.97
- Y-Aib-EGT-αMeF(2F)-TSD-3Pal-SI-αMeL-LDEK((2-[2-(2-Amino-ethoxy)-ethoxy]-acetyl)2-(γGlu)-CO—(CH2)18—CO2H)AQ-Aib-EFIEYLIEGGPSSGAPPPS-NH2 (YXEGTXTSDXSIXLDEKAQXEFIEYLIEGGPSSGAPPPS; Aib, αMeF(2F), 3Pal, αMeL; lipidated K; C-terminal amide; (2)..(2) Xaa at position 2 is Aib; (6)..(6) Xaa at position 6 is alpha-methyl-Phe(2F); (10)..(10) Xaa at position 10 is 3Pal; (13)..(13) Xaa at position 13 is alpha-methyl-Leu; MOD_RES (17)..(17) Lys at position 17 is chemically modified by conjugation of the epsilon-amino group of the Lys side chain with (2-[2-(2-amino-ethoxy)-ethoxy]-acetyl)2-(gamma-Glu)-CO-(CH2)18- CO2H; (20)..(20) Xaa at posit) [Peptide 157] — lower, 2.52
- Y-Aib-EGT-αMeF(2F)-TSD-4Pal-SI-αMeL-LD-Dab-K((2-[2-(2-Amino-ethoxy)-ethoxy]-acetyl)2-(γGlu)-CO—(CH2)16—CO2H)AQ-Aib-EFI-(D-Glu)-YLIEGGPSSGAPPPS-NH2 (YXEGTXTSDXSIXLDXKAQXEFIXYLIEGGPSSGAPPPS; Aib, 4Pal, Dab, lipidated Lys, D-Glu, C-terminal amide; (2)..(2) Xaa at position 2 is Aib; (6)..(6) Xaa at position 6 is alpha-methyl-Phe(2F); (10)..(10) Xaa at position 10 is 4Pal; (13)..(13) Xaa at position 13 is alpha-methyl-Leu; (16)..(16) Xaa at position 16 is Dab; MOD_RES (17)..(17) Lys at position 17 is chemically modified by conjugation of the epsilon-amino group of the Lys side chain with (2-[2-(2-amino-ethoxy)-ethoxy]-acetyl)2-(gamma-Glu)-CO-) [Peptide 233] — higher, 9.25
- Y-Aib-EGT-αMeF(2F)-TSD-4Pal-SI-αMeL-LD-Orn-K((2-[2-(2-Amino-ethoxy)-ethoxy]-acetyl)2-(γGlu)-CO—(CH2)16—CO2H)AQ-Aib-EFI-(D-Glu)-αMeY-LIEGG-NH2 (YXEGTXTSDXSIXLDXKAQXEFIXXLIEGG; Aib, αMeF(2F), 4Pal, αMeL, Orn, αMeY, D-Glu; C18 diacid lipidation; amide; (2)..(2) Xaa at position 2 is Aib; (6)..(6) Xaa at position 6 is alpha-methyl-Phe(2F); (10)..(10) Xaa at position 10 is 4Pal; (13)..(13) Xaa at position 13 is alpha-methyl-Leu; (16)..(16) Xaa at position 13 is Orn; MOD_RES (17)..(17) Lys at position 17 is chemically modified by conjugation of the epsilon-amino group of the Lys side chain with (2-[2-(2-amino-ethoxy)-ethoxy]-acetyl)2-(gamma-Glu)-CO-) [Peptide 265] — lower, 2.99
- Y-Aib-EGT-αMeF(2F)-TSD-4Pal-SI-αMeL-LD-Orn-K((2-[2-(2-Amino-ethoxy)-ethoxy]-acetyl)2-(γGlu)-CO—(CH2)16—CO2H)AQ-Aib-EFI-(D-Glu)-αMeY-LIEGGPSSG-NH2 (YXEGTXTSDXSIXLDXKAQXEFIXXLIEGGPSSG; Aib, αMeF(2F), 4Pal, αMeL, Orn, αMeY, D-Glu; C18 diacid lipidation; amide; (2)..(2) Xaa at position 2 is Aib; (6)..(6) Xaa at position 6 is alpha-methyl-Phe(2F); (10)..(10) Xaa at position 10 is 4Pal; (13)..(13) Xaa at position 13 is alpha-methyl-Leu; (16)..(16) Xaa at position 16 is Orn; MOD_RES (17)..(17) Lys at position 17 is chemically modified by conjugation of the epsilon-amino group of the Lys side chain with (2-[2-(2-amino-ethoxy)-ethoxy]-acetyl)2-(gamma-Glu)-CO-) [Peptide 264] — lower, 2.63
- Y-Aib-EGT-αMeF(2F)-TSD-4Pal-SI-αMeL-LD-Orn-K((2-[2-(2-Amino-ethoxy)-ethoxy]-acetyl)2-(γGlu)-CO—(CH2)16—CO2H)AQ-Aib-EFI-(D-Glu)-αMeY-LIEGGPSSGAPPPS-NH2 (YXEGTXTSDXSIXLDXKAQXEFIXXLIEGGPSSGAPPPS; Aib, 4Pal, Orn, αMe residues, lipidated Lys, D-Glu, amide; (2)..(2) Xaa at position 2 is Aib; (6)..(6) Xaa at position 6 is alpha-MeF(2F); (10)..(10) Xaa at position 10 is 4Pal; (13)..(13) Xaa at position 13 is alpha-MeL; (16)..(16) Xaa at position 16 is Orn; MOD_RES (17)..(17) K at position 17 is chemically modified by conjugation of the epsilon-amino group of the K side chain with (2-[2-(2-amino-ethoxy)-ethoxy]-acetyl)2-(gamma-Glu)-CO-(CH2)16- CO2H; (20) [Peptide 4] — lower, 4.22
- Y-Aib-EGT-αMeF(2F)-TSD-4Pal-SI-αMeL-LD-Orn-K((2-[2-(2-Amino-ethoxy)-ethoxy]-acetyl)2-(εK)-CO—(CH2)18—CO2H)AQ-Aib-AFI-(D-Glu)-αMeY-LIEGGPSSGAPPPS-NH2 (YXEGTXTSDXSIXLDXKAQXAFIXXLIEGGPSSGAPPPS; Aib, 4Pal, Orn, αMe residues, lipidated Lys, D-Glu, amide; (2)..(2) Xaa at position 2 is Aib; (6)..(6) Xaa at position 6 is alpha-methyl-Phe(2F); (10)..(10) Xaa at position 10 is 4Pal; (13)..(13) Xaa at position 13 is alpha-methyl-Leu; (16)..(16) Xaa at position 16 is Orn; MOD_RES (17)..(17) Lys at position 17 is chemically modified by conjugation of the epsilon-amino group of the Lys side chain with (2-[2-(2-amino-ethoxy)-ethoxy]-acetyl)2-(epsilon-Lys)-C) [Peptide 251] — lower, 3.74
